From US7022323

How the values were obtained:
[1] = target: DC-SIGNR (DC-SIGN Related), human, expressed on HeLa-DC-SIGN-R cells (homo sapien) (UniProt Q9H2X3); experiment: flow cytometry on HeLa-DC-SIGN-R cells
[2] = target: DC-SIGN (Dendritic Cell-Specific Intercellular adhesion molecule 3-Grabbing Nonintegrin), human, expressed on HeLa-DC-SIGN cells (homo sapien) (UniProt Q9NNX6); experiment: flow cytometry on HeLa-DC-SIGN cells
Sequence of DC-SIGN (Dendritic Cell-Specific Intercellular adhesion molecule 3-Grabbing Nonintegrin), human, expressed on HeLa-DC-SIGN cells (homo sapien) (Q9NNX6 whole entry): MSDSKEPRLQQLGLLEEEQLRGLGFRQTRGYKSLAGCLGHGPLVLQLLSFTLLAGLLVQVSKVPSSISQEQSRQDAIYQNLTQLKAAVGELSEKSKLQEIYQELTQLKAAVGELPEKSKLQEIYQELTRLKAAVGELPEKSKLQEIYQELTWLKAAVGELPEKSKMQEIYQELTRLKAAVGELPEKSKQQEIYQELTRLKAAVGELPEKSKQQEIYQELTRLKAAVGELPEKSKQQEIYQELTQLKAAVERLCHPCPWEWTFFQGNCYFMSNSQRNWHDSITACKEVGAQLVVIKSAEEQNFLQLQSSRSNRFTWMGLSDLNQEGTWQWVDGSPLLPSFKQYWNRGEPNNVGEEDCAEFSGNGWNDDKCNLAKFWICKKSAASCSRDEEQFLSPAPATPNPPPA

Sequence of DC-SIGNR (DC-SIGN Related), human, expressed on HeLa-DC-SIGN-R cells (homo sapien) (Q9H2X3 whole entry C368X): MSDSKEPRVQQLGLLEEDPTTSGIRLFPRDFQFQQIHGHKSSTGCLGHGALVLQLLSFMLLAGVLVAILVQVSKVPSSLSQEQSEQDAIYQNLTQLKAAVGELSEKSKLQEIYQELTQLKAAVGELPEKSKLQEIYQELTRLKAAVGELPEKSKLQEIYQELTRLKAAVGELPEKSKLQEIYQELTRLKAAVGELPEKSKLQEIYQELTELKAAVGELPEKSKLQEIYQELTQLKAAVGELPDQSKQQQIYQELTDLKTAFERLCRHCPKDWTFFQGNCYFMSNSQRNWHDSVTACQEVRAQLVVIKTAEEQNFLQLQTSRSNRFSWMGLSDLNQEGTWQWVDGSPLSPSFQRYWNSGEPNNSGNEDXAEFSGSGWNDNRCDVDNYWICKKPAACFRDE

Substance | % Positive Cells [1] [%] | Mean fluorescence intensity [1] | % Positive Cells [2] [%] | Mean fluorescence intensity [2]
120507 (507D), DC-SIGN-specific mouse IgG2b mAb (BD Pharmingen) (antibody) | 3.5 | 17.1 | 90.6 | 81.1
120604 (604L), DC-SIGN-R-specific mouse IgG2b mAb (BD Pharmingen) (antibody) | 96 | 129 | 1.1 | 14.2
120612 (612X), mouse IgG2a mAb that recognizes both DC-SIGN and DC-SIGN-R (BD Pharmingen) (antibody) | 94.8 | 102 | 67.3 | 46.6
Isotype control (antibody) | 2.8 | 13.7 | 1 | 16.9
